In patent US20120301393A1, “MODIFIED UBIQUITIN PROTEINS HAVING A SPECIFIC BINDING ACTIVITY FOR THE EXTRADOMAIN B OF FIBRONECTIN” (Scil Proteins GmbH, priority 2009, published 2012):
“Also recorded” adds a separate entry of the source.

How the values were obtained:
murine Balb 3T3-cells = assay: binding to cell culture cells, Balb 3T3; format: cell-based; settings: 1, 10, 50 nM
Description: (§1) The binding of, for example, variant 1041-D11 to cell culture cells was tested. Different cell culture cells were analysed, including normal human fetal lung fibroblast cells having high expression levels of ED-B (Wi38 cells), a mouse embryonic fibroblast cell line (Balb 3T3); a stromal cell line, derived from mouse bone marrow (ST-2) monocytes/macrophages (RAW 264.7), NHDF cells and murine fibroblast cells (LM).
(§2) Similar experiments were performed using different cells types, for example Balb3T3 (ATCC, Kat-Nr. 30-2002), Raw (Lonza, Kat-Nr. BE12-115F/U1), ST-2 (Lonza, Kat-Nr. BE12-115F/U1).

[1] = biological target: fibronectin fragment 67B89 (soluble ED-B) (Homo sapiens, UniProt P02751); assay: complex-formation analysis by SE-HPLC with 67B89; format: binding; settings: 0.72 nmol each, 1 h RT
Description: (§3) For the analysis of complex formation, Tricorn Superdex 75 5/150 GL columns (GE-Healthcare) (V=3 ml) was used, protein amount of 50 μl was applied. Further conditions: buffer: 1×PBS, pH 7.3, flow-rate: 0.3 ml/min, run: 45 min (injection of sample: after 15 min). Condition: 0.72 nmol 1041-D11 protein+0.72 nmol ED-B (herein referred to 67B89 or also as a negative control 6789) incubated for 1 h at RT; then applied to column for analysis of complex-formation. In FIG. 14, only the variant is shown in black, only the target ED-B is shown in blue, the variant binding building a complex with ED-B in pink.

[2] = test system: monocytes/macrophages (RAW 264.7); assay: binding to cell culture cells, Raw; format: cell-based; settings: data not shown
Description: as §1, §2

[3] = test system: human fetal lung fibroblast cells (Wi38); assay: binding to cell culture cells, Wi38; format: cell-based; settings: immunofluorescence
Description: as §1
The negative control cell type NHDF are primary normal fibroblast cells, which express low levels of EDB-fibronectin (data not shown).
The negative control cell type NHDF is primary normal fibroblast cells, which express low levels of EDB-fibronectin. The cells were plated in chamber-slides (NUNC, 60000 cells/ml). To analyses the binding potential the cells were fixed with 100% MeOH for 5 min at −20° C. To block unspecific binding, the cells were incubated with 5% Horse-serum 1 h 37° C. The cells were tested with the variant 1041-D11, an ED-B specific antibody FV28 CH4/F1 as positive control or UB—2 as negative control with different concentrations 1 h RT. The proving occurred about an incubation with rabbit-a-Strep-Tag-IgG (obtained from GenScript A00875, 1:500) for 1 h and incubation with a-rabbit-IgG*Alexa488-AK (obtained from Invitrogen A11008, 1:1000) for 1 h. The nuclei were stained with DAPI. […] The first 2 lines show the variant and positive control on Wi38-cell line.

[4] = tissue panel staining (48 tissues, FDA relevant panel)
[5] = biological target: T1, Human fibronectin lacking the ED-B domain (h6789) (Homo sapiens, UniProt P02751); assay: concentration dependent ELISA, negative control fibronectin fragment without ED-B; format: binding
T1 construct: fibronectin fragment 6789 without ED-B

[6] = biological target: immobilized ED-B containing fibronectin fragment (67B89) (Homo sapiens, UniProt P02751); assay: competitive concentration dependent ELISA; format: binding; settings: in the presence of increasing amounts of free target
Description: Competitive concentration dependent ELISAs analyzed the binding of ubiquitin variant 1041-D11 to immobilized ED-B containing fibronectin fragment […] in the presence of increasing amounts of free target. Conditions of the ELISA were as described for Example 5A, except that 1041-D11 protein was preincubated with ED-B (67B89) (0 μM-10 μM) or also with negative control 6789 (0 μM-10 μM) for 1 h and subsequently the mixture was given to the target 67B89 that was placed on a Medisorp-plate; following this, the variant was detected by the corresponding antibody (anti-Ubiquitin-Fab-POD; dilution 1:6500).

ED-B (67B89) = ED-B (67B89) (Homo sapiens, UniProt P02751); assay: concentration dependent ELISA analyzing serum-stability of binding activity; settings: 1 h at 37° C. in mouse or rat serum
Description: The ELISA is performed using procedures well known in the art and as described above (Example 5A and 5B). ED-B (here referred to as 67B89) is coated to microtiter plates, the variant is bound to ED-B and detected by a specific ubiquitin-antibody (Anti-Ubi-Fab-POD). The variant in this assay is treated in different ways: the variant is incubated in mouse serum for 1 h at 37° C. (see in FIG. 13, circles in blue); the variant is incubated in rat serum for 1 h at 37° C. (in FIG. 13, circles in red); or the variant is incubated PBS for 1 h at 37° C. (in FIG. 13, circles in black).

[7] = biological target: ED-B containing fibronectin fragment (67B89) (Homo sapiens, UniProt P02751); assay: label-free interaction assay using Biacore; format: binding; settings: 1:1-Langmuir-fitting
Description: Different concentrations of the variant were analyzed (for example, 0-200 nM of the variant, preferably 1041-D11) for binding to an ED-B containing fibronectin fragment (referred to as 67B89) immobilized on a CM5-chip (Biacore) using methods known to those skilled in the art. The obtained data were processed via the BIAevaluation software and 1:1-Langmuir-fitting. The kinetic binding constants were kon=7.6*10^5 M^−1 s^−1; koff=7.7*10^−4 s^−1. […]

[8] = biological target: T2, ED-B free fibronectin fragment 6789 (Homo sapiens, UniProt P02751); assay: complex-formation analysis by SE-HPLC with 6789; format: binding; settings: 0.72 nmol each, 1 h RT
T2 construct: fibronectin fragment 6789 without ED-B
Description: as §3

[9] = biological target: T3, ED-B in F9 tumor vasculature (Mus musculus, UniProt P11276); assay: immunohistochemistry on F9 tumor tissue sections; design: species or system mice; settings: seven samples
T3 construct: 1041-D11 specifically decorates the vasculature in tissue sections from F9 tumors; from tissue; host or cells: F9 tumor tissue sections from mice
Description: F9 tumor tissues from seven samples were evaluated. […] ED-B is a highly specific marker for tumor vasculature. The target protein EDB is located on the abluminal side of the vessels. 1041-D11 specifically decorates the vasculature in tissue sections from F9 tumors. […] Thus, fusion proteins based on modified ubiquitin specifically binding to ED-B are suitable an ED-B based targeted therapy for cancer.

murine ST-2-cells = assay: binding to cell culture cells, ST-2; format: cell-based; settings: 1, 10, 50 nM
Description: as §1, §2

L929 cells = assay: L929 apoptosis assay (TNFα activity); format: cell-based; settings: actinomycinD sensitized L929 cells, 48 h; listed as free cytokine; read-out: EC50 value, corresponding TNFα (free cytokine) tested in parallel
Description: The physiological TNFα-activity of TNFα-modified ubiquitin based ED-B binding fusions has been determined using the L929 apoptosis assay (Flick et al., 1984 J. Immunol. Methods. 68:167-175). In this assay, TNF-alpha efficiently stimulates cell death in actinomycinD sensitized cells at EC50 values in the picomolar range.
Cells have been resuspended in medium containing FBS and antibiotics. A cell suspension of 100 μl of a densitiy of 3.5×10^5 cells/ml has been seeded into the wells of a 96 well standard cell culture plate followed by over night incubation in a humidified CO2 incubator. Thereafter, the culture medium has been removed and 50 μl of medium containing FBS, ActinomycinD and antibiotics has been added to each well followed by a further 30 min incubation time. Thereafter, 50 μl of the test items, TNFα-modified ubiquitin based ED-B binding-fusions or the human recombinant TNFαcontrol, at an appropriate concentration range of between 10^−7 and 10^−18 M, have been added. After a further 48 h incubation time the metabolic activity as a measure of cell survival was determined using WST-1 reagent (Roche).
Per test item at least three independent experiments have been conducted, each of them in triplicates. […]
The quantitative evaluation is based on the EC50-value, i.e. the value according to the test item concentration promoting the survival of half of the cells.

Sequence of ED-B containing fibronectin fragment (67B89) (P02751 32-2477): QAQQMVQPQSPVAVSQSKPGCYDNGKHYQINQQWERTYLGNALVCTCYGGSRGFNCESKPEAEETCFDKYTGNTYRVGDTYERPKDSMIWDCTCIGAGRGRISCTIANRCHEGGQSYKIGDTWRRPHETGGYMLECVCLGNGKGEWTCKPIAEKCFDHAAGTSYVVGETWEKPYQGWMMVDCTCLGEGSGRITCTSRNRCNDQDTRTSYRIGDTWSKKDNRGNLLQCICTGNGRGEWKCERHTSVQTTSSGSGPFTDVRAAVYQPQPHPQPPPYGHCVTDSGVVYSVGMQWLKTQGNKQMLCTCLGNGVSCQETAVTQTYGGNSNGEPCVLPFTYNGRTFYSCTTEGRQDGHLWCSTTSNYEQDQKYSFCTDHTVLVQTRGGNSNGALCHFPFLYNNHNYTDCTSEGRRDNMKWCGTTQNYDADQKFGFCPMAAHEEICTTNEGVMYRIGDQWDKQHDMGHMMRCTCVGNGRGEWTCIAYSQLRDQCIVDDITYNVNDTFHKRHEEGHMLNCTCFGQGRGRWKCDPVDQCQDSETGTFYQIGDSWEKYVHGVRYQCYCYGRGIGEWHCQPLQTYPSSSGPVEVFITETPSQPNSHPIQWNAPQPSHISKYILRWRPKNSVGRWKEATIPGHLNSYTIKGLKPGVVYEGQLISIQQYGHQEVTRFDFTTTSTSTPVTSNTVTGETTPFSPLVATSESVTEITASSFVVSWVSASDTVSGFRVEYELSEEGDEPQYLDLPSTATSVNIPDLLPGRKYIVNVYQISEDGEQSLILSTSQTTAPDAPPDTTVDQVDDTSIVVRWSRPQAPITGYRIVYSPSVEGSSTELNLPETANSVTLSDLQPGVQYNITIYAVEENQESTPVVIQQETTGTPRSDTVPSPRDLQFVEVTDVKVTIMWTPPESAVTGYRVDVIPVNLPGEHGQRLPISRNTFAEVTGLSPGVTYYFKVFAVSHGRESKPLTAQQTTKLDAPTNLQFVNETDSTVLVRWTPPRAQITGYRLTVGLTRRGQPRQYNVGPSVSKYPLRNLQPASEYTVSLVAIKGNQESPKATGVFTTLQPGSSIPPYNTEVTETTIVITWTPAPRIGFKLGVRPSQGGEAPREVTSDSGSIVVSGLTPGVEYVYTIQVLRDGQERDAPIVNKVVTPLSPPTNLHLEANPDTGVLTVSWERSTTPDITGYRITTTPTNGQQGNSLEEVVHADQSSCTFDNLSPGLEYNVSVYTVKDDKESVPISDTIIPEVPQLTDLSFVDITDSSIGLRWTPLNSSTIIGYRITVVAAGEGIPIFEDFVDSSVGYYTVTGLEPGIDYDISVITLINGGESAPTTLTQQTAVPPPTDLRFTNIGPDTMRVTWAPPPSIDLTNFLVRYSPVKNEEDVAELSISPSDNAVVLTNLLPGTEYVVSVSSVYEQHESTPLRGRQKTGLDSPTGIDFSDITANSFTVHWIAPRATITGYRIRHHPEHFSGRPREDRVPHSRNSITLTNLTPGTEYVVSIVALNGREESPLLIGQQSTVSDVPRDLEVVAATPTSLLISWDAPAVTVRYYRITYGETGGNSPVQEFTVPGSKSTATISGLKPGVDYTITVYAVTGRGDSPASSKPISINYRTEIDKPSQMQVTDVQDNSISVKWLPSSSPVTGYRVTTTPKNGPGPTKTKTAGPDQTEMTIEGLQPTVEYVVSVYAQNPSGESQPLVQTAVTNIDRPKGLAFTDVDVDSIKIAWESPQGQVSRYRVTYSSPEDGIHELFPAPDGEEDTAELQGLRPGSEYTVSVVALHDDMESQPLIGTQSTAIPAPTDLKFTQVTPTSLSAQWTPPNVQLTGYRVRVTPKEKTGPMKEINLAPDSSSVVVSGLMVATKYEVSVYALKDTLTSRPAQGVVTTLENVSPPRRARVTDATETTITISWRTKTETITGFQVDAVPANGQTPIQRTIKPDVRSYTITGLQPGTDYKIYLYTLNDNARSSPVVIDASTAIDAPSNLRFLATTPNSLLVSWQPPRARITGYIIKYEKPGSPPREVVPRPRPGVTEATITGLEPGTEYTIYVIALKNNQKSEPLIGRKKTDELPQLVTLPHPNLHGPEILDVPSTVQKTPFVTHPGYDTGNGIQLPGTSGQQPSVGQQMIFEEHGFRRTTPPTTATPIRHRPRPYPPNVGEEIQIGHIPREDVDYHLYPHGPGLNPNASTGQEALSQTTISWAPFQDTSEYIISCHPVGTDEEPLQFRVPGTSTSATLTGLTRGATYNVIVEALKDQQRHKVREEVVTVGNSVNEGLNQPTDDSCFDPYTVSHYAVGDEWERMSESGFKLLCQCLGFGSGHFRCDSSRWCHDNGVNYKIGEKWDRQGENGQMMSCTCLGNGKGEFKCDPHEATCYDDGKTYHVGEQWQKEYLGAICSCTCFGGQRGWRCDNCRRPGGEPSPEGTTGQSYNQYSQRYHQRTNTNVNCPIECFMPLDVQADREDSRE
Sequence of fibronectin fragment 67B89 (soluble ED-B) (P02751 32-2477): as above
T2 sequence (P02751 1089-1449 isoform P02751-1): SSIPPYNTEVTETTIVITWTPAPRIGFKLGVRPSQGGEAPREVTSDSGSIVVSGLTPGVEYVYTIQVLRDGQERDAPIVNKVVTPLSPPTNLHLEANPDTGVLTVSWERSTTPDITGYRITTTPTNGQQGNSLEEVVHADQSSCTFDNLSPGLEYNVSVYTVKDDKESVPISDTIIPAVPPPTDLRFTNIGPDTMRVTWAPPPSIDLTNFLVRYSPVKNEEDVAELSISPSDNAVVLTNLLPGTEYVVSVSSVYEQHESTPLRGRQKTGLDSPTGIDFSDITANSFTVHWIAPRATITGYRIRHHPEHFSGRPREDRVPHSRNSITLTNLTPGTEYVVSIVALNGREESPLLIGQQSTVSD
Sequence of ED-B (67B89) (P02751 32-2477): as the sequence (P02751 32-2477) above
Sequence of immobilized ED-B containing fibronectin fragment (67B89) (P02751 32-2477): as above
T1 sequence (P02751 1089-1449 isoform P02751-1 limits assumed): as the sequence (P02751 1089-1449 isoform P02751-1) above

Row | Substance | binding to fixed murine Balb 3T3-cells (murine Balb 3T3-cells) | complex formation with 67B89 [1] | binding to monocytes/macrophages (Raw) [2] | binding to vital Wi38 cells [3] | binding to fixed Wi38 cells ([3]; 58.7 nM and 587 nM) | unspecific staining in 48 tissues of FDA relevant panel [4] | binding to negative control fibronectin fragment without ED-B (6789) [5] | IC50 [6] [nM] | influence of blood serum on binding to ED-B (ED-B (67B89)) | koff [7] [s⁻¹] | kon [7] [M⁻¹ s⁻¹] | complex formation with 6789 [8] | staining of F9 tumor tissue sections [9] | binding to fixed murine ST-2-cells (murine ST-2-cells) | EC50 (L929 cells) [nM]
1 | 1041-D11: hetero-dimeric ubiquitin variant: K6W, L8W, K63R, E64K, S65F, T66P; second module Q2R, K6T, L8Q, Q62W, K63S, E64N, S65W, T66E | binds to murine Balb 3T3 cells with high specificity | formation of a complex; also recorded: builds a complex | No binding | binds to vital Wi38 cells with high specificity | binds to fixed Wi38 cells with high specificity | no unspecific staining | no binding | 140 | not significantly influenced | 0.00077 | 760000 | no significant binding; also recorded: builds no complex | ED-B specific vascular staining | binds to murine Balb ST-2 cells with high specificity | 
2 | TNFα [reference compound] |  |  |  |  |  |  |  |  |  |  |  |  |  |  | 0.00314 ± 0.00359
